Results taken from the supplement of paper PMC12042874.
± gives the uncertainty stated by the source.

Assay: amyloid nucleation score (Sup35N fusion, yeast selection) (log enrichment); library NNK3; higher = more nucleation; inactive = no reads after selection
Procedure, shortened: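 Libraries of peptides of 20 random codons fused to Sup35N were expressed in psi-negative yeast and induced 24 hours with 100 μM copper sulfate. Selection was 7 days at 30°C on medium lacking adenine and uracil, and plasmid inserts were Illumina-sequenced before and after selection. Nucleation score is the DiMSum log enrichment of output over input reads, centred on the mode score of non-aggregating sequences, and sequences with under 100 input reads were left out.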
In the case of NVFNFRVDSSDHPPVSAWWD, the amyloid nucleation score is reported as “inactive”. For SVRHSWTMSVFFSDRNALAN, the amyloid nucleation score was “inactive”. For LVVTYWEMRLVPADAK, the amyloid nucleation score was “inactive”. In the case of QWKPWDNTAVGMLPAWIWVD, the amyloid nucleation score is reported as “inactive”. In the case of RFWLLRRVVWEME, the amyloid nucleation score is reported as “inactive”. In the case of IVCYLSFASLDDLRTRHMCT, the amyloid nucleation score is reported as “inactive”. For LLFQMVHLTCVMYLLVSSTL, the amyloid nucleation score was “inactive”. For DISSILVNTWLFDWKLNP, the amyloid nucleation score was “inactive”. FFYSYGRLNPKYDRVYISFG showed an amyloid nucleation score of -0.661 ± 0.98. SDMCMVLFLLTVYFVMSGRC gave an amyloid nucleation score of 0.133 ± 0.67. In the case of SFSYDTRVDVSAILQSQNSL, the amyloid nucleation score is reported as “inactive”. For VYNIDTRNISFMSASNRTLS, the amyloid nucleation score was “inactive”. For TVYLACIC, the amyloid nucleation score was “inactive”. For VWNMSASIKLQRMSAF, the amyloid nucleation score was “inactive”. With TVRGEVVGPSDNREKIQKQW the amyloid nucleation score was “inactive”. In the case of KWVFYYDRRVDSLLARMFLC, the amyloid nucleation score is reported as “inactive”. For HFQMRAERDESSNRPYSSFG, the amyloid nucleation score was “inactive”. In the case of GLNLR, the amyloid nucleation score is reported as “inactive”. With NNSSLRTEVLCFDGISQFGG the amyloid nucleation score was “inactive”. Substance YVTHMQLGYLSVMCMEVKRG has an amyloid nucleation score of 1.35 ± 0.085. In the case of NYDVPSDLRWEMLWVAYCRR, the amyloid nucleation score is reported as “inactive”. With SLKEVSFWSASRDDGGDRMQ the amyloid nucleation score was “inactive”. For SFLAYYMFYM, the amyloid nucleation score was “inactive”. With RERIYAELFSSWRRSAKGIF the amyloid nucleation score was “inactive”. For NFNCSANWYHLSLLTMNHEV, the amyloid nucleation score was “inactive”. For NVRVFFVSYVL, the amyloid nucleation score was 0.885 ± 0.11. With FMMMYDCNLDCFRHSIEI the amyloid nucleation score was “inactive”. With DYVFPRVYRGS the amyloid nucleation score was “inactive”. In the case of LCRGYDRLKRPHSVVSGSIC, the amyloid nucleation score is reported as “inactive”. In the case of MDVARRMFLISYIFIIFVVR, the amyloid nucleation score is reported as “inactive”. For TPRLSMDHTFVRWDCV, the amyloid nucleation score was “inactive”. Work on QMRVQMSCCFLGTCFSGRHW yielded an amyloid nucleation score of 3.29 ± 0.056. For DYKRSMGFGWLTFVPYLAGN, the amyloid nucleation score was “inactive”. In the case of RVLYSFQCAFLMDKETSSGR, the amyloid nucleation score is reported as “inactive”. For HLYDKSMNVGSRSARAELSM, the amyloid nucleation score was “inactive”. For GVADGGMPRNSSWRLSGVVR, the amyloid nucleation score was “inactive”. For TQESRDIGFTAPRGRICTQG, the amyloid nucleation score was “inactive”. For SWGIEDSVSYEMETDVVSNW, the amyloid nucleation score was “inactive”. For IIMLTFQVNVTFASVWRTRS, the amyloid nucleation score was “inactive”. With EEGCYHLLNNLGRNCSECNG the amyloid nucleation score was “inactive”. In the case of SYRASSGCHWREPHGLSDVR, the amyloid nucleation score is reported as 0.897 ± 0.21. With VDNCIWLFLSTFYDGCVVML the amyloid nucleation score was “inactive”. Work on SISPVSPGIRAKITTAEMVR yielded an amyloid nucleation score of -0.201 ± 1.1. With LVVCYGNWMRLVGIFINGNS the amyloid nucleation score was “inactive”. For GIGNCYLMLQTKIFEWFFSE, the amyloid nucleation score was “inactive”. For DRQLDDGGTRNKFIKCLVAR, the amyloid nucleation score was “inactive”. For GSDSVAGHYFSFVYKVIAEF, the amyloid nucleation score was 0.292 ± 0.3. For VVVLYFVSHWTNRMSYSTRL, the amyloid nucleation score was “inactive”. With YGLHTGKSKALQQRIVW the amyloid nucleation score was “inactive”. For KVSYSQTPISGRTDTPVPDR, the amyloid nucleation score was 0.294 ± 0.2. With SHHSHSNDVALGSSISF the amyloid nucleation score was “inactive”. For YFMVRWYCAGLDILCGLQEK, the amyloid nucleation score was “inactive”. ICSGTSH gave an amyloid nucleation score of -0.268 ± 0.6. For TGDGTWS, the amyloid nucleation score was “inactive”. For RACCLFQGDWQERLDSISFA, the amyloid nucleation score was “inactive”. Work on FFVQSGIIEELYTW yielded an amyloid nucleation score of 0.173 ± 0.31. Work on SITYCWLHR yielded an amyloid nucleation score of 1.77 ± 0.078. Substance YIIFLTMAHF has an amyloid nucleation score of 0.656 ± 0.29. For WYGCVAWYVVKSMFYS, the amyloid nucleation score was “inactive”. For RNGLSIGVNVGHLT, the amyloid nucleation score was “inactive”. In the case of PLSTITDGLMRSLVTLVGHS, the amyloid nucleation score is reported as “inactive”. GNIAYSVLMWSDCKTCQCDV gave an amyloid nucleation score of 1.82 ± 0.058. For RRRERGASNVDELWF, the amyloid nucleation score was “inactive”. In the case of FMTLMVTLYLRLYSRSYGPQ, the amyloid nucleation score is reported as “inactive”. With ALYNCSCQDNGVQFNK the amyloid nucleation score was “inactive”. Work on HVVKSRSGLIMVWRPLL yielded an amyloid nucleation score of -0.65 ± 1.1. With LEVHIFKDPEY the amyloid nucleation score was “inactive”. With GENIEYMF the amyloid nucleation score was 0.025 ± 0.31. For WSMCKLKDFFTGRGVYRFIS, the amyloid nucleation score was “inactive”. Work on LCNWRAVDCDD yielded an amyloid nucleation score of -0.151 ± 0.59. For TRWRSLSEGPSVGLEITPRF, the amyloid nucleation score was “inactive”. With FEECGVGPYVTKREATWFNG the amyloid nucleation score was “inactive”. With QCTASLEHHFVNNQDNASAW the amyloid nucleation score was “inactive”. PNAIILVQYTYIVGMRGGHS showed an amyloid nucleation score of 1.11 ± 0.08. With PRRMHMGHAVFDIMGTLRSK the amyloid nucleation score was 0.9 ± 0.15. For AWSDPSDQQPEQLRVVVDFL, the amyloid nucleation score was “inactive”. For IKFHW, the amyloid nucleation score was “inactive”. In the case of LSVANQNCVKLDIVHM, the amyloid nucleation score is reported as “inactive”. For HMSSLITVS, the amyloid nucleation score was “inactive”. In the case of SQLRP, the amyloid nucleation score is reported as “inactive”. In the case of SHNGLKTLNGSFLAYLSCRA, the amyloid nucleation score is reported as 0.904 ± 0.16. In the case of FMPPFASN, the amyloid nucleation score is reported as “inactive”. With IGFGSWFSKVSPNVEFVGAL the amyloid nucleation score was “inactive”. For RIMLVYCMGSRGIAMFCQHN, the amyloid nucleation score was “inactive”. For SKCIKLFNFNVSCFQTSSLL, the amyloid nucleation score was 2.29 ± 0.092. With REYSEA the amyloid nucleation score was “inactive”. With TENISFECYMEIY the amyloid nucleation score was “inactive”. LMPCALFSGVYEAGRHGSFL showed an amyloid nucleation score of 0.462 ± 0.34. In the case of MFQPFYFHNFYISCKLA, the amyloid nucleation score is reported as 1.95 ± 0.092. With LVCMEISSNFLATVCVEWIG the amyloid nucleation score was “inactive”. For VSDILADCPIIRPGGYCCVS, the amyloid nucleation score was “inactive”. In the case of YRSEGSWHDDSQSKKWWSGV, the amyloid nucleation score is reported as “inactive”. For PYLLMWSA, the amyloid nucleation score was “inactive”. With KTSINGKADFG the amyloid nucleation score was “inactive”. With MRLVACA the amyloid nucleation score was “inactive”. In the case of LWSLYFDFVQGFGMYLSQSL, the amyloid nucleation score is reported as “inactive”. In the case of YGLVGQFSTVGTKQALLLGT, the amyloid nucleation score is reported as “inactive”. With DCFSKRWLHLFANYSSVSTN the amyloid nucleation score was “inactive”. With CIYNVKALIQRVWIMIEVTS the amyloid nucleation score was 0.707 ± 0.13. In the case of SRNLPVLTYLFLVKKWEWYP, the amyloid nucleation score is reported as “inactive”. With APHLFLARYLYVCLYCENEW the amyloid nucleation score was 1.25 ± 0.11. With WVDWFESSQTFFCALYE the amyloid nucleation score was “inactive”. For FLIDDMYWSVMDTWI, the amyloid nucleation score was “inactive”. With DWLDLSGVSCH the amyloid nucleation score was -0.11 ± 0.62. With VVMVLRVLLWWFRTSIMSRK the amyloid nucleation score was 0.467 ± 0.19. With IFGFDYIAPFFCVTFGIRRV the amyloid nucleation score was “inactive”. For RLHLAPTNCREVNWPTLWLA, the amyloid nucleation score was -0.565 ± 1.8. In the case of TNVSEFQALTWMNTWYSAFS, the amyloid nucleation score is reported as “inactive”. LLYRWVGFHLIKLSVNAWLS showed an amyloid nucleation score of -1.01 ± 2.4. With PAVPLQSNLRRETTFRAGCL the amyloid nucleation score was “inactive”. For FGVYKLSWNP, the amyloid nucleation score was 0.044 ± 0.41. For LYCPGYSMKSSVL, the amyloid nucleation score was “inactive”. In the case of DSVYGMHGKTTFT, the amyloid nucleation score is reported as “inactive”. With RKDYGMLYFFLSSRKCTHAI the amyloid nucleation score was “inactive”. For WRPFWYIGFHVNVTRG, the amyloid nucleation score was “inactive”. Work on SVERILLYGRCCFVRRA yielded an amyloid nucleation score of 0.403 ± 0.2. In the case of FSWRCCFHKNNDCAKTILMF, the amyloid nucleation score is reported as “inactive”.
